What was measured:
[1] = biological target: 6xHis-AtSUMO1-eGFP
[2] = biological target: 6xHis-AtSUMO2-eGFP
[3] = biological target: 6xHis-T-SUMO-eGFP
[4] = biological target: 6xHis-hSUMO-1-eGFP
[5] = biological target: 6xHis-hSUMO-3-X-eGFP, X = A
[6] = biological target: 6xHis-hSUMO-3-X-eGFP, X = C
[7] = biological target: 6xHis-hSUMO-3-X-eGFP, X = D
[8] = biological target: 6xHis-hSUMO-3-X-eGFP, X = E
[9] = biological target: 6xHis-hSUMO-3-X-eGFP, X = F
[10] = biological target: 6xHis-hSUMO-3-X-eGFP, X = G
[11] = biological target: 6xHis-hSUMO-3-X-eGFP, X = H
[12] = biological target: 6xHis-hSUMO-3-X-eGFP, X = I
[13] = biological target: 6xHis-hSUMO-3-X-eGFP, X = K
[14] = biological target: 6xHis-hSUMO-3-X-eGFP, X = L
[15] = biological target: 6xHis-hSUMO-3-X-eGFP, X = N
[16] = biological target: 6xHis-hSUMO-3-X-eGFP, X = P
[17] = biological target: 6xHis-hSUMO-3-X-eGFP, X = Q
[18] = biological target: 6xHis-hSUMO-3-X-eGFP, X = R
[19] = biological target: 6xHis-hSUMO-3-X-eGFP, X = S
[20] = biological target: 6xHis-hSUMO-3-X-eGFP, X = T
[21] = biological target: 6xHis-hSUMO-3-X-eGFP, X = V
[22] = biological target: 6xHis-hSUMO-3-X-eGFP, X = W
[23] = biological target: 6xHis-hSUMO-3-X-eGFP, X = Y
[24] = biological target: 6xHis-hSUMO-3-eGFP
[25] = biological target: 6xHis-ySmt3-eGFP

B1: human SENP2 (hSENP2) SUMO protease catalytic domain (protein)
chain: MASLLELTEDMEKEISNALGHGPQDEILSSAFKLRITRGDIQTLKNYHWLNDEVINFYMNLLVERNKKQGYPALHVFSTFFYPKLKSGGYQAVKRWTKGVNLFEQEIILVPIHRKVHWSLVVIDLRKKCLKYLDSMGQKGHRICEILLQYLQDESKTKRNSDLNLLEWTHHSMKPHEIPQQLNGSDCGMFTCKYADYISRDKPITFTQHQMPLFRKKMVWEILHQQLLAAALEHHHHHH
activity level (grade) [1]: +
cleavage, 2-fold enzyme dilution series, SDS-PAGE [1]: Both hSENP2 and yUlp1 cleaved the AtSUMO1 fusion similarly
activity level (grade) [2]: +
activity level (grade) [3]: +
activity level (grade) [4]: ++
cleavage, 2-fold enzyme dilution series, SDS-PAGE; fold against yUlp1 [4]: hSENP2 was able to cleave hSUMO-1 and ySmt3 fusions somewhat more effectively (about 2-fold) than yUlp1
cleavage, time course, SDS-PAGE [4]: both enzymes cleaving hSUMO-1-eGFP poorly
Percent cleavage, enzyme:substrate 1:100 [5]: 99.6%
Percent cleavage, enzyme:substrate 1:1000 [5]: 92.5%
Percent cleavage, enzyme:substrate 1:100 [6]: 100%
Percent cleavage, enzyme:substrate 1:1000 [6]: 98.5%
Percent cleavage, enzyme:substrate 1:100 [7]: 99.5%
Percent cleavage, enzyme:substrate 1:1000 [7]: 69.8%
Percent cleavage, enzyme:substrate 1:100 [8]: 100%
Percent cleavage, enzyme:substrate 1:1000 [8]: 92.2%
Percent cleavage, enzyme:substrate 1:100 [9]: 100%
Percent cleavage, enzyme:substrate 1:1000 [9]: 98.9%
Percent cleavage, enzyme:substrate 1:100 [10]: 100%
Percent cleavage, enzyme:substrate 1:1000 [10]: 98.9%
Percent cleavage, enzyme:substrate 1:100 [11]: 100%
Percent cleavage, enzyme:substrate 1:1000 [11]: 98.4%
Percent cleavage, enzyme:substrate 1:100 [12]: 98.4%
Percent cleavage, enzyme:substrate 1:1000 [12]: 56.2%
Percent cleavage, enzyme:substrate 1:100 [13]: 100%
Percent cleavage, enzyme:substrate 1:1000 [13]: 92.8%
Percent cleavage, enzyme:substrate 1:100 [14]: 98.6%
Percent cleavage, enzyme:substrate 1:1000 [14]: 75.2%
Percent cleavage, enzyme:substrate 1:100 [15]: 96.2%
Percent cleavage, enzyme:substrate 1:1000 [15]: 98.3%
Percent cleavage, enzyme:substrate 1:100 [16]: 0%
Percent cleavage, enzyme:substrate 1:1000 [16]: 0%
Percent cleavage, enzyme:substrate 1:100 [17]: 95.9%
Percent cleavage, enzyme:substrate 1:1000 [17]: 66.7%
Percent cleavage, enzyme:substrate 1:100 [18]: 99.7%
Percent cleavage, enzyme:substrate 1:1000 [18]: 98.7%
Percent cleavage, enzyme:substrate 1:100 [19]: 99.6%
Percent cleavage, enzyme:substrate 1:1000 [19]: 99.1%
Percent cleavage, enzyme:substrate 1:100 [20]: 99%
Percent cleavage, enzyme:substrate 1:1000 [20]: 82%
Percent cleavage, enzyme:substrate 1:100 [21]: 100%
Percent cleavage, enzyme:substrate 1:1000 [21]: 99.8%
Percent cleavage, enzyme:substrate 1:100 [22]: 100%
Percent cleavage, enzyme:substrate 1:1000 [22]: 99.4%
Percent cleavage, enzyme:substrate 1:100 [23]: 100%
Percent cleavage, enzyme:substrate 1:1000 [23]: 98.7%
Kcat [24]: Kcat = 0.33
Kcat, fold difference against yUlp1 [24]: about 12-fold difference in Kcat
Km [24]: Km = 2.41 mM
Percent cleavage, enzyme:substrate 1:100 [24]: 99.4%
Percent cleavage, enzyme:substrate 1:1000 [24]: 95.4%
activity level (grade) [24]: +++
cleavage, 2-fold enzyme dilution series, SDS-PAGE; fold against yUlp1 [24]: hSENP2 was able to cleave hSUMO-3-eGFP at least 4-fold better than an identical amount of yUlp1
cleavage, time course, SDS-PAGE [24]: providing nearly complete cleavage within 2 hrs.
Kcat [25]: Kcat = 0.75
Kcat, fold difference against yUlp1 [25]: about 2-fold difference in Kcat
Km [25]: Km = 2.72 mM
activity level (grade) [25]: +++++
cleavage, 2-fold enzyme dilution series, SDS-PAGE; fold against yUlp1 [25]: hSENP2 was able to cleave hSUMO-1 and ySmt3 fusions somewhat more effectively (about 2-fold) than yUlp1
cleavage, time course, SDS-PAGE [25]: both enzymes cleaving hSUMO-1-eGFP poorly and ySmt3-eGFP well

Source: patent US20100021987
